Article PMC11930087, “Mobility of four structural regions drives isoform-specific properties of photoenzyme LPOR in plants” (The Journal of Biological Chemistry, 2025)

Biological target: the molecule itself
Test: negative-stain transmission electron microscopy; reaction mixtures of 5 μM Pchlide, 15 μM AtPORB, 200 μM NADPH and either 100 μM lowMGDG lipid mixture (2.5 mol% MGDG, 47.5 mol% PG, 50 mol% DGDG) or OPT lipids; filaments seen

B1: light-dependent protochlorophyllide oxidoreductase B from Arabidopsis thaliana (enzyme)
chain: QTAATSSPTVTKSVDGKKTLRKGNVVVTGASSGLGLATAKALAETGKWNVIMACRDFLKAERAAKSVGMPKDSYTVMHLDLASLDSVRQFVDNFRRTETPLDVLVCNAAVYFPTAKEPTYSAEGFELSVATNHLGHFLLARLLLDDLKKSDYPSKRLIIVGSITGNTNTLAGNVPPKANLGDLRGLAGGLNGLNSSAMIDGGDFDGAKAYKDSKVCNMLTMQEFHRRFHEETGVTFASLYPGCIASTGLFREHIPLFRALFPPFQKYITKGYVSETESGKRLAQVVSDPSLTKSGVYWSWNNASASFENQLSEEASDVEKARKVWEISEKLVGLA
notes: LPOR B of Arabidopsis thaliana, P21218; probably without the transit peptide, as the constructs cloned here; In the assays it stood with Pchlide, NADPH and lipids; also called AtPORB; LPOR
binding result: binds
